Laboratory results published in patent US20200405889A1.
Where no end group is shown, it is not given here. [ ]: non-standard residue; d: D form. The star is where a group is joined. maleimido‑mono‑amide‑DOTA = O=C(O)CN1CCN(CC(=O)O)CCN(CC(=O)NCCN2C(=O)CC(*)C2=O)CCN(CC(=O)O)CC1

Key:
[1] = molecular target: mouse chemokine (C-C motif) receptor 2 (CCR2) (mouse) (UniProt P51683); test: cell-based or functional assay
[2] = molecular target: human CCR2 (hCCR2) (human) (UniProt P41597); test: autoradiography of ^64Cu-DOTA-ECL1i on human COPD lung tissue sections, co-incubation with 500-fold non-radioactive ECL1i
Sequence of human CCR2 (hCCR2) (human) (P41597 whole entry): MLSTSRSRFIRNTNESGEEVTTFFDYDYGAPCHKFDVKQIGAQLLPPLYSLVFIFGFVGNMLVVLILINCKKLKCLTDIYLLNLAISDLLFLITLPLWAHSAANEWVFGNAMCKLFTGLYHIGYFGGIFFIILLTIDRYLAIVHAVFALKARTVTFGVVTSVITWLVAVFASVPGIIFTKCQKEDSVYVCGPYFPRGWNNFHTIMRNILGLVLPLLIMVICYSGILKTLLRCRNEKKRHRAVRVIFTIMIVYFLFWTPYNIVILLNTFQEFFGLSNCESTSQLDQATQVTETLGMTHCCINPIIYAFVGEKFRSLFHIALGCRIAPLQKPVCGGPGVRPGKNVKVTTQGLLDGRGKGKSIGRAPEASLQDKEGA

Sequence of mouse chemokine (C-C motif) receptor 2 (CCR2) (mouse) (P51683 whole entry): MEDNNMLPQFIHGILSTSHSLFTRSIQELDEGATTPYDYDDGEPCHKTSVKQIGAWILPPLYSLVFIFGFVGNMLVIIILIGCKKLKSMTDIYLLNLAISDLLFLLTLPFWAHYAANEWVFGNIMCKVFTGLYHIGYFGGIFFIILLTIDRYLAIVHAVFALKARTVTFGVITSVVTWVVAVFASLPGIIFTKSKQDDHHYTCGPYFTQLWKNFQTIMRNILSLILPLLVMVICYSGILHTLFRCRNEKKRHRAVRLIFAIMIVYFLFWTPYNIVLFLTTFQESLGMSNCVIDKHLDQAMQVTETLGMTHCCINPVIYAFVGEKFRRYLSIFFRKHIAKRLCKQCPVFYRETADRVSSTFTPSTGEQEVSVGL

Row | Binder | graft/native lung uptake ratio, PET 1 hour after transplantation, wild type B6 lung into wild type B6 recipient [1] | graft/native lung uptake ratio, PET at 1 hour with co-injected non-radiolabeled ECL1i [1] | graft/native lung uptake ratio, PET at 4 hours, wild type into wild type [1] | graft/native lung uptake ratio, PET at 24 hours, wild type into wild type [1] | lung PET uptake 24 h after intratracheal LPS [1] [% ID/g] | lung PET uptake 24 h after intratracheal PBS [1] [% ID/g] | lung PET uptake 48 h post-LPS [1] [% ID/g] | lung PET uptake 144 h post-LPS [1] [% ID/g] | lung PET uptake after low dose LPS [1] [% ID/g] | lung PET uptake in LPS-treated mice co-injected with excess non-radioactive ECL1i (blocked) [1] [% ID/g] | lung PET uptake in naive mice [1] [% ID/g] | percent of PET signal in grafts blocked by competitive receptor blocking, wild type recipients [1] [%] | percent of autoradiography signal blocked [2] [%]
1 | [dL]G[dT][dF][dL][dK][dC](maleimido‑mono‑amide‑DOTA) (also: DOTA chelates 64Cu) [^64Cu-DOTA-ECL1i] | 3.71 | 1.17 | 4.13 | 3.73 | 4.43 | 0.99 | 1.04 | 1.29 | 1.82 | 0.63 | 0.39 | 75 | –
2 | [dL]G[dT][dF][dL][dK][dC] [ECL1i peptide d(LGTFLKC)] | – | – | – | – | – | – | – | – | – | – | – | – | 54.5
